Laboratory results: the supplement of paper PMC9233669
Fewer inactive variants are shown than the library holds.

How the values were obtained:
[1] = tested on: biotinyl-Phe-oxazolone; test: self-aminoacylation, catalytic enhancement (BFO) (fold over background); higher = more active; k-Seq, kA / k0A0; sequences stand for … in GGGAAUGGAUCCACAUCUACGAAUUC…UUCACUGCAGACUUGACGAAGCUG
Summary of the method: (§1)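 Mutagenized RNA pools (0.43 μM; 21-nt variable region) were treated with 2–1250 μM of each biotinyl-aminoacyl-oxazolone. Conditions were 50 μL HEPES/NaCl/KCl/MgCl2/CaCl2 buffer, 5% acetonitrile, pH 6.9–7.0, room temperature, 90 minutes. Catalytic enhancement, the median kA relative to the uncatalyzed rate, was derived from streptavidin capture, qPCR and Illumina sequencing.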

[2] = tested on: biotinyl-Ile-oxazolone; test: self-aminoacylation, catalytic enhancement (BIO) (fold over background); higher = more active; k-Seq, kA / k0A0; sequences stand for … in GGGAAUGGAUCCACAUCUACGAAUUC…UUCACUGCAGACUUGACGAAGCUG
Summary of the method: as §1

[3] = tested on: biotinyl-Met-oxazolone; test: self-aminoacylation, catalytic enhancement (BMO) (fold over background); higher = more active; k-Seq, kA / k0A0; sequences stand for … in GGGAAUGGAUCCACAUCUACGAAUUC…UUCACUGCAGACUUGACGAAGCUG
Summary of the method: as §1

[4] = tested on: biotinyl-Val-oxazolone; test: self-aminoacylation, catalytic enhancement (BVO) (fold over background); higher = more active; k-Seq, kA / k0A0; sequences stand for … in GGGAAUGGAUCCACAUCUACGAAUUC…UUCACUGCAGACUUGACGAAGCUG
Summary of the method: as §1

[5] = tested on: biotinyl-Leu-oxazolone; test: self-aminoacylation, catalytic enhancement (BLO) (fold over background); higher = more active; k-Seq, kA / k0A0; sequences stand for … in GGGAAUGGAUCCACAUCUACGAAUUC…UUCACUGCAGACUUGACGAAGCUG
Summary of the method: as §1

[6] = tested on: biotinyl-Trp-oxazolone; test: self-aminoacylation, catalytic enhancement (BWO) (fold over background); higher = more active; k-Seq, kA / k0A0; sequences stand for … in GGGAAUGGAUCCACAUCUACGAAUUC…UUCACUGCAGACUUGACGAAGCUG
Summary of the method: as §1

Sequence | self-aminoacylation [1] | self-aminoacylation [2] | self-aminoacylation [3] | self-aminoacylation [4] | self-aminoacylation [5] | self-aminoacylation [6]
AAGUUUGCUAAUAUUGGCAAG [Fam3.1 aminoacylation ribozyme variant] | 0.81 | 0.773 | 0.894 | 0.784 | 0.847 | 1.22
AUUGCCCUGGUCAUCGAGUUA [Fam2.1 aminoacylation ribozyme variant] | 8.37 | 2.31 | 4.84 | 2.64 | 5.24 | 4.44
CUACUUUAAAUAAUCGGUCUG [Fam1A.1 aminoacylation ribozyme variant] | 1.03 | 0.923 | 0.869 | 0.902 | 0.82 | 0.885
AUUGCCCUGGUCAUCCAGUGA [Fam2.1 aminoacylation ribozyme variant] | 44.4 | 3.7 | 6.42 | 4.02 | 7.38 | 7.66
CUAAUUCAAACAAUUGGUCUG [Fam1A.1 aminoacylation ribozyme variant] | 0.608 | 0.839 | 0.776 | 0.687 | 0.744 | 0.572
CCACACCUCAAGCAAUCAGUC [Fam1B.1 aminoacylation ribozyme variant] | 1.26 | 0.843 | 0.804 | 0.856 | 0.6 | 0.558
AAGUUUCCUAAUAGUCGUAAG [Fam3.1 aminoacylation ribozyme variant] | 2.58 | 1.2 | 1.18 | 1.07 | 1.07 | 1.27
AUUCACCGAGGACAUCGGGUG [Fam2.2 aminoacylation ribozyme variant] | 35.9 | 3.59 | 5.56 | 3.78 | 6.02 | 5.74
CUACUUCAAAUAAUCGGUGUG [Fam1A.1 aminoacylation ribozyme variant] | 3.23 | 0.826 | 0.983 | 0.826 | 1 | 2.4
AUUCACGUAGGUCAUAGGGUG [Fam2.2 aminoacylation ribozyme variant] | 2.23 | 1.67 | 2.17 | 1.92 | 2.36 | 1.97
GCACACUUCAAGCAAUCCGUC [Fam1B.1 aminoacylation ribozyme variant] | 1.76 | 1.66 | 1.2 | 1.98 | 1.71 | 2.01
CCACUAUUCAAGCAAUCGGUC [Fam1B.1 aminoacylation ribozyme variant] | 1.75 | 1.04 | 0.916 | 1.09 | 0.944 | 1.23
CUAUUUCAAACAGUCGGUCUG [Fam1A.1 aminoacylation ribozyme variant] | 0.588 | 0.827 | 0.859 | 0.8 | 0.843 | 0.682
AUGUUUGCUAAUAGUCGCCAG [Fam3.1 aminoacylation ribozyme variant] | 1.53 | 1.26 | 1.37 | 1.29 | 1.51 | 1.76
AUUACCCUGGUGAUCGAUUGA [Fam2.1 aminoacylation ribozyme variant] | 0.845 | 1.03 | 1.39 | 0.859 | 1.09 | 0.834
AUAACCCGGGUCAUCGAGUGA [Fam2.1 aminoacylation ribozyme variant] | 45.7 | 3.78 | 6.42 | 3.29 | 8.98 | 7.61
AUUACCUUAGUCAUCGAGUGA [Fam2.1 aminoacylation ribozyme variant] | 14.8 | 2.71 | 4.41 | 2.59 | 4.62 | 5.48
AUUCACCUAGGUCAUCGGAAG [Fam2.2 aminoacylation ribozyme variant] | 0.472 | 0.622 | 0.562 | 0.782 | 0.541 | 0.705
AAGUUUGCUAGUAGUCGCAGG [Fam3.1 aminoacylation ribozyme variant] | 2.48 | 0.89 | 1.02 | 0.799 | 0.956 | 1.05
CUUAACCUAGGUCAUCGGGUG [Fam2.2 aminoacylation ribozyme variant] | 15.8 | 2.91 | 4.25 | 2.69 | 4.78 | 4.21
AUUACCCUGGCCAUGGAGUGA [Fam2.1 aminoacylation ribozyme variant] | 19.7 | 3.24 | 4.45 | 2.79 | 4.12 | 5.9
CUACUUCAAACAUUCGGUCUU [Fam1A.1 aminoacylation ribozyme variant] | 0.774 | 1.15 | 1.38 | 1.11 | 1.03 | 0.767
CUACUUCAAACAAUCCGUCUC [Fam1A.1 aminoacylation ribozyme variant] | 1.18 | 0.634 | 0.471 | 0.751 | 0.44 | 0.858
ACUUUUGCUAAUAGUCGCAAG [Fam3.1 aminoacylation ribozyme variant] | 3.71 | 2.75 | 2.59 | 2.57 | 2.68 | 2.56
CCACACUUCAAGCAAUCUAUC [Fam1B.1 aminoacylation ribozyme variant] | 0.891 | 0.557 | 0.422 | 0.683 | 0.533 | 0.287
AAGUCUGGUAAUAGUCGCAAG [Fam3.1 aminoacylation ribozyme variant] | 2.18 | 1.17 | 1.16 | 0.918 | 0.903 | 0.868

Sequence | self-aminoacylation [1] | self-aminoacylation [2] | self-aminoacylation [3] | self-aminoacylation [4] | self-aminoacylation [5] | self-aminoacylation [6]
CGACUCUUCAAGCAAUCGGUC [Fam1B.1 aminoacylation ribozyme variant] | 3.23 | 1.22 | 1.02 | 1.32 | 0.86 | 3.07
CUACUUAAAACAAUCGGUCGG [Fam1A.1 aminoacylation ribozyme variant] | 0.727 | 0.878 | 0.786 | 0.74 | 0.857 | 0.59
UCACACUUCAAGAAAUCGGUC [Fam1B.1 aminoacylation ribozyme variant] | 7.38 | 0.947 | 0.819 | 0.888 | 0.906 | 6.06
AUGUUUGCUAAUAGCCGCAAG [Fam3.1 aminoacylation ribozyme variant] | 2.62 | 1.28 | 0.997 | 1.04 | 1.14 | 1.36
AUUACCCUGGUCAGCAAGUGA [Fam2.1 aminoacylation ribozyme variant] | 9.67 | 2.95 | 4.16 | 2.61 | 4 | 4.8
CUAUUUCAAACAAUUGGUCUG [Fam1A.1 aminoacylation ribozyme variant] | 0.87 | 1.01 | 0.994 | 0.873 | 0.929 | 0.736
AUUCACCUAGGUCAUCGGGUG [Fam2.2 aminoacylation ribozyme variant] | 486 | 33.2 | 60.1 | 28.4 | 83.7 | 45.6
CCACACUUCAAGCAAUCAGUU [Fam1B.1 aminoacylation ribozyme variant] | 2.42 | 1.15 | 0.802 | 1.29 | 0.925 | 1.12
ACUCACCUAGGUCAUCUGGUG [Fam2.2 aminoacylation ribozyme variant] | 6.43 | 1.68 | 1.87 | 1.57 | 2.03 | 2.35
CUACUUUAAACAAUAGGUCUG [Fam1A.1 aminoacylation ribozyme variant] | 0.945 | 0.925 | 0.979 | 0.891 | 0.841 | 0.648
GCACACGUCAAGCAAUCGGUC [Fam1B.1 aminoacylation ribozyme variant] | 11.5 | 2.63 | 2.47 | 2.85 | 2.18 | 3.95
GUACUUCAAACAACCGGUCUG [Fam1A.1 aminoacylation ribozyme variant] | 4.78 | 1.67 | 1.21 | 1.54 | 1.23 | 2.02
AAGUGUGCUAAUAGUCGCAAG [Fam3.1 aminoacylation ribozyme variant] | 21.7 | 1.56 | 1.69 | 1.36 | 1.36 | 6.71
CUUACCCUGGUCAUCAAGUGA [Fam2.1 aminoacylation ribozyme variant] | 4.44 | 1.67 | 2.58 | 1.93 | 2.58 | 3.4
AGUACACUGGUCAUCGAGUGA [Fam2.1 aminoacylation ribozyme variant] | 19.1 | 3.01 | 4.07 | 2.81 | 4.42 | 5.76
CUCUUUCAAACAAUCGGUCUG [Fam1A.1 aminoacylation ribozyme variant] | 14.2 | 0.972 | 1.13 | 0.908 | 1.21 | 9.95
AAGUAUGCUAAUAGUCGCAGG [Fam3.1 aminoacylation ribozyme variant] | 2.31 | 1.44 | 1.37 | 1.48 | 1.46 | 1.2
AUUCACCAAGGUCAUCGGGCG [Fam2.2 aminoacylation ribozyme variant] | 16 | 3.24 | 4.07 | 3.64 | 4.59 | 3.82
CUACUACAAACAUUCGGUCUG [Fam1A.1 aminoacylation ribozyme variant] | 1.33 | 1.34 | 1.23 | 1.38 | 1.01 | 1.18
CCACUCUUCAGGCAAUCGGUC [Fam1B.1 aminoacylation ribozyme variant] | 0.929 | 1.31 | 1.34 | 1.49 | 1.33 | 1.23
AUUACCCUGAUGAUCGAGUGA [Fam2.1 aminoacylation ribozyme variant] | 79.7 | 5.5 | 12.7 | 5.25 | 13 | 14.4
AUUUCCCUGGUCAUUGAGUGA [Fam2.1 aminoacylation ribozyme variant] | 63.1 | 4.47 | 8.36 | 4.4 | 8.38 | 10
AUUACCCUGGGCAUCGAAUGA [Fam2.1 aminoacylation ribozyme variant] | 1.14 | 0.945 | 0.647 | 0.934 | 0.912 | 2.01
UCACACUUCAAGCAAUCGAUC [Fam1B.1 aminoacylation ribozyme variant] | 1.49 | 0.589 | 0.501 | 0.808 | 0.468 | 0.732
CAACUUCAAAUAAUCGGUCUG [Fam1A.1 aminoacylation ribozyme variant] | 15.6 | 1.27 | 1.05 | 1.11 | 1.39 | 12.2
